Measured values reported in US20250027068.

Molecular target: pooled human IgG (human IgG1,2,3 and 4)

| Protein | Enzyme Activity Endpoint Assay: Fab′2 | Enzyme Activity Endpoint Assay: Fc | Enzyme Activity Endpoint Assay: IgG | Enzyme Activity Endpoint Assay: scIgG |
| --- | --- | --- | --- | --- |
| PRT-291 (protein) MVTSVWTKGVTPPADFTQGEDVFHAPYVANQGWYDITKTFNGKDDLLCGAATAGNMLHWWFDQNKEYIEAYLKKHPEKQKIMFGDQELLDVRKAINTKGSQKNSELFNYFRDKAFPNLSARRLGVMPDLVLDMFINGYYLNVTKTQTTDVNRTYQEKDKRGGIFDAVFTRGDQSKLLTSRHDFKEKGLKEISDLIKQELTEGKALGLSHTYANVRLNHVINLWGADFDSDGNLKAIYVTDSDSNASIGMKKYFVGVNSSGKVAISAKEIKEDNIGAQVLGLFTLSTGQDIWNQTN | 1020 ng/µL | 420 ng/µL | 0 ng/µL | 0 ng/µL |
| PRT-299 (protein) MVTSVWTKGVTPPTDFIKGEDVFHAPYKAGQGWYDITKTFNGKDDLLCGAATAGNMLHWWFDQNKEYIEAYLKKHPEKQKIMFGDQELLDVRKAINTKGSQKNSELFNYFRDKAFPNLSARRLGVMPDLVLDMFINGYYLNVTKTQTTDVNRTYQEKDKRGGIFDAVFTRGDQSKLLTSRHDFKEKGLKEISDLIKQELTEGKALGLSHTYANVRIGHVINLWGADFDSDGNLKAIYVTDSDSNASIGMKKYFVGVNSSGKVAISAKEIKEDNIGAQVLGLFTLSTGQDIWNQTN | 549 ng/µL | 378 ng/µL | 368 ng/µL | 0 ng/µL |
| PRT-307 (protein) MQITSVWTKGVTPLTPEQFRKNNEDVIHAPYLAHQGWYDITKAFDGKDNLLCGAATAGNMLHWWFDQNKTEIEAYLSKHPEKQKIIFNNQELFDLKAAIDTKDSQTNSQLFNYFRDKAFPNLSARQLGVMPDLVLDMFINGYYLNVGKTQSTDVNRPYQDKDKRGGIFDAVFTRGDQTTLLTARHDLKNKGLNDISTIIKQELTEGRALALSHTYANVSISHVINLWGADFNAEGNLEAIYVTDSDANASIGMKKYFVGRNAHGHVAISAKKIEGENIGAQVLGLFTLSSGKDIWQKLS | 215 ng/µL | 290 ng/µL | 138 ng/µL | 614 ng/µL |
| PRT-315 (protein) MQITSVWTKGVTPLTPEQFRENNEDVIHAPYLAHQGWYDITKAFDGKDNLLCGAATAGNMLHWWFDQNKTEIEAYLSKHPEKQKIIFNNQELFDLKAAIDTKDSQTNSQLFDYFRDKAFPNLSARQLGVMPDLVLDMFINGYYLNVFKTQSTDVNRPYQDKDKRGGIFDAVFTRGDQTTLLTARHDLKNKGLNDISTIIKQELTEGRALALSHTYANVSISHVINLWGADFNAEGELEAIYVTDSDANPSIGMKKYFVGRNAHGHVAISAKKIEGENIGAQVLGLFTLSSGKDIWQKLS | 981 ng/µL | 408 ng/µL | 0 ng/µL | 0 ng/µL |
| PRT-323 (protein) MTITSVWTKGVTPPTPEDFRENNEDVLHAPYVANQGWYDITKTFDGKDNLLCGAATAGNMLHWWFDQNKEEIERYLKKHPEKQKIIFNNQEWFDVKAAIDTKDSQTNSKLFNYFRDKAFPNLSARQLGVMPDLVLDMFINGYYLNLPKTQSTDVNRPYQDKDKRGGIFDAVFTRGDQTTLLTARHDLKNKGLNEISDLIKQELTEGKALALSHTYANVRINHVINLWGADFDAEGNLIAIYVTDSDANASIGMKKYAVGVNANGKVAISAKKIEGDNIGAQVLGLFTLSTGQDIWQKLS | 130 ng/µL | 256 ng/µL | 235 ng/µL | 743 ng/µL |
| PRT-331 (protein) MTITSVWTKGVTPPTPEDFRENNEDVLHAPYVANQGWYDITKTFDGKDNLLCGAATAGNMLHWWFDQNKEEIERYLKKHPEKQKIIFNNQELFDVKAAIDTKDSQTNSKLFDYFRDKAFPGLSARQLGVFPDLVLDMFINGYYLNLGKTQSTDVNRPYQDKDKRGGIFDAVFTRGVQTTLLTARHDLKNKGLNEISDLIKQELTEGKALALSHTYANVRINHVINLWGADFDAEGNLIAIYVTDSDANASIGMKKYFVGRNANGKVAISAKKIEGDNIGAQVLGLFTLSTGQDQWQKLS | 954 ng/µL | 398 ng/µL | 0 ng/µL | 0 ng/µL |
| PRT-244 (protein) MVTSVWTKGVTPPANFTQGEDVFHAPYVANQGWYDITKTFNGKDDLLCGAATAGNMLHWWFDQNKDQIKRYLEEHPEKQKINFNGEQMFDVKEAIDTKNHQLDSKLFEYFLEKAFPNLSTKHLGVFPDHVIDMFINGYRLSLLNHGPTPVKEGSKDPRGGIFDAVFTRGDQSKLLTSRHDFKEKNLKEISDLIKKELTEGKALGLSHTYANVRINHVINLWGADFDSNGNLKAIAVTDSDSNASIGMKKYFVGVNSSGKVAISAKEIKEDNIGAQVLGLFTLSTGQDSWNQTN | 998 ng/µL | 429 ng/µL | 0 ng/µL | 0 ng/µL |
| PRT-252 (protein) MVTSVWTKGVTPPTNFTYGEDVLHAPYVANQGWYDITKLFNGKDDLLCGAATAGNMLHWWFDQNKEQIENYLKKHPEKQKINFNGEQMFDVKEAIDTKDSQLDSKLFEYFLEKAFPNLSTKHLGVFPDHVIDMFINGYRLSLLNHGPTPVKRGSKDPRGGIFDAVFTRGDQSKLLTNRHDFKEKTLKEISDLIKQELTEGKALGISHTYANGRINHVINLWGADFDAEGNLEAIAVTDSDSNASIGMKKYFVGVNSSGKVAISAKEIEEDNIGAQVLGLFTLSTGQDIWNQTN | 634 ng/µL | 365 ng/µL | 56 ng/µL | 0 ng/µL |
| PRT-260 (protein) MVTSVWTKGVTPPTNFTYGEDVLHAPYVANQGWYDITKTFNGKDNLLCGAATAGNMLHWWFDQNKEQIENYLKKHPEKQKINFNGEQLFDVKEAIDTKDSQLDSKLFDYFKEKAFPNLSTKHLGVFPDHVIDMFINGYRLSLLNHGPTPVKRGSKDKRGGIFDAVFTRGVQSKLLTNRHDFKEKTLKEISDLIKQELTEGKALGISHTYANVRINHVINLWGADFDAEGNLEAIYVTDSDTNPSIGMKKYFVGVNSSGKVAISAKEIEEDNIGAQVLGLFTLSTGQDIWNQTN | 793 ng/µL | 354 ng/µL | 0 ng/µL | 0 ng/µL |
| PRT-268 (protein) MVTSVWTKGVTPPTDFIYGEDVLHAPYKAGQGWYDITKLFNGKDDLLCGAATAGNMLHWWFDQNKEQIENYLKKHPEKQKINFNGEQMFDVKEAIDTKDSQLDSKLFDYFKEKAFPNLSTKHLGVFPDHVIDMFINGYRLSLLNHGPTPVKRGSKDPRGGIFDAVFTRGDQSKLLTNRHDLKNKTLKEISDLIKQELTEGKALGISHTYANGRINHVINLWGADFDAEGNLEAIYVTDSDSNPSIGMKKYFVGVNSSGKVAISAKEIEEDNIGAQVLGLFTLSTGQDIWNQTN | 429 ng/µL | 325 ng/µL | 90 ng/µL | 282 ng/µL |
| PRT-276 (protein) MVTSVWTKGVTPPTDFIYGEDVLHAPYKAGQGWYDITKTFNGKDNLLCGAATAGNMLHWWFDQNKEQIENYLKKHPEKQKIIFNNQELFDLKAAIDTKDSQLDSKLFEYFLEKAFPNLSTKHLGVFPDHVIDMFINGYRLSLLNHGPTPVKRGSKDKRGGIFDAVFTRGVQSKLLTNRHDLKNKTLKEISDLIKQELTEGKALGISHTYANVRINHVINLWGADFDAEGNLEAIAVTDSDTNASIGMKKYFVGVNSSGKVAISAKEIEEDNIGAQVLGLFTLSTGQDIWNQTN | 912 ng/µL | 383 ng/µL | 0 ng/µL | 0 ng/µL |
| PRT-284 (protein) MVTSVWTKGVTPPAKFTQGEDVFHAPYVANQGWYDITKTFNGKDDLLCGAATAGNMLHWWFDQNKEKIEAYLKKHPDKQKIMFGDQELLDVRKVINTKGDQTNSELFNYFRDKAFPNLSARRIGVMPDLVLDMFINGYYLNVYKTQTTDVNRTYQEKDRRGGIFDAVFTRGDQSKLLTSRHDFKEKNLKEISDLIKKELTEGKALGLSHTYANVRLNHVINLWGADFDSNGNLKAIYVTDSDSNASIGMKKYGVGVNSAGKVAISAKEIKEDNIGAQVLGLFTLSTGQDSWNQTN | 72 ng/µL | 184 ng/µL | 45 ng/µL | 483 ng/µL |
| PRT-292 (protein) MVTSVWTKGVTPPADFTQGEDVFHAPYDANQGWYDITKTFNGKDDLLCGAATAGNMLHWWFDQNKEYIEAYLKKHPEKQKIMFGDQELLDVRKAINTKGSQKNSELFNYFRDKAFPNLSARRLGVMPDLVLDMFINGYYLNVTKTQTTDVNRTYQEKDKRGGIFDAVFTRGDQSKLLTSRHDFKEKGLKEISDLIKQELTEGKALGLSHTYANVRISHVINLWGADFDSDGNLKAIYVTDSDSNASIGMKKYFVGVNSAGKVAISAKEIKEDNIGAQVLGLFTLSTGQDIWNQTN | 758 ng/µL | 359 ng/µL | 0 ng/µL | 0 ng/µL |
| PRT-300 (protein) MVTSVWTKGVTPPTDFIKGEDVFHAPYKAGQGWYDITKTFNGKDDLLCGAATAGNMLHWWFDQNKEYIEAYLKKHPEKQKIMFGDQELLDVRKAINTKGSQKNSELFNYFRDKAFPNLSARRLGVMPDLVLDMFINGYYLNVTKTQTTDVNRTYQEKDKRGGIFDAVFTRGDQSKLLTSRHDFKEKGLKEISDLIKQELTEGKALGLSHTYANVRLNHVINLWGADFDSDGNLKAIYVTDSDSNASIGMKKYFVGVNSSGKVAISAKEIKEDNIGAQVLGLFTLSTGQDIWNQTN | 333 ng/µL | 274 ng/µL | 276 ng/µL | 43 ng/µL |
| PRT-308 (protein) MQITSVWTKGVTPLTPEQFRENNEDVIHAPYLAHQGWYDITKAFDGKDNLLCGAATAGNMLHWWFDQNKTEIEAYLSKHPEKQKIIFNNQELFDLKAAIDTKDSQTNSQLFNYFRDKAFPNLSARQLGVMPDLVLDMFINGYYLNVGKTQSTDVNRPYQDKDKRGGIFDAVFTRGDQTTLLTARHDLKNKGLNDISTIIKQELTEGRALALSHTYANVSISHVINLWGADFDAEGNLEAIYVTDSDANASIGMKKYFVGRNAHGHVAISAKKIEGENIGAQVLGLFTLSLGKDIWQKLS | 405 ng/µL | 204 ng/µL | 59 ng/µL | 106 ng/µL |
